The values below come from patent USRE47223 (Genentech, dated 2019).

Changes are numbered by the printed parent chain.

For experiment [1], the target named is T1, TAT10772 polypeptide (human).
T1 construct: Cell-surface TAT10772 on engineered PC3 cells (PC3/A5.3B2), OVCAR-3, OVCA-432, SK-OV-3 cells and tumor tissue; also called TAT10772 target polypeptide
Briefly: Western blot, ELISA, FACS of TAT10772-expressing cells and/or immunohistochemistry.

Experiment [2] deals with T2, 5-domain TAT10772 (human).
T2 construct: Recombinant portion of the extracellular domain, expressed in CHO cells; also called 5-mucin domain
T2 chain: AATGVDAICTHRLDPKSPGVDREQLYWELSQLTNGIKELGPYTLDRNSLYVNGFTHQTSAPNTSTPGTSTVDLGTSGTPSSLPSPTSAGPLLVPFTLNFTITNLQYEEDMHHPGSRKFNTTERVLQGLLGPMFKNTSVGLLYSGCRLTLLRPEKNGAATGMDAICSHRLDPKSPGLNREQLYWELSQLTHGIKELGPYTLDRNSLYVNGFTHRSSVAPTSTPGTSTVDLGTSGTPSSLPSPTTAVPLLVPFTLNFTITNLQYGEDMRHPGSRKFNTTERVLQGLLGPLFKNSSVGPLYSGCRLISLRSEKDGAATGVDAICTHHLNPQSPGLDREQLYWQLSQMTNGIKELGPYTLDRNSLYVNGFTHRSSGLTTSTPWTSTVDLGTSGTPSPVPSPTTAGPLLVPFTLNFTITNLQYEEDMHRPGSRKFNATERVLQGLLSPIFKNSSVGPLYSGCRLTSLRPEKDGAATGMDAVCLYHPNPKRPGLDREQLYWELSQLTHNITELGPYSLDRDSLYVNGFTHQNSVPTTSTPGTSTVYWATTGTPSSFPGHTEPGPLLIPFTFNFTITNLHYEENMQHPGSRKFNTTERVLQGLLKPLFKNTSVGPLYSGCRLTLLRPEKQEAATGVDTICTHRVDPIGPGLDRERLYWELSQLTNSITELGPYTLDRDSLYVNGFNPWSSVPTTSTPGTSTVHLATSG
Briefly: Biacore SPR, 5′-domain TAT10772 over immobilized IgG.

Experiment [3] addresses T1, TAT10772 polypeptide. Briefly: ELISA on OVCAR-3 cells, IgG.
Experiment [4] concerns the target T1, TAT10772 polypeptide. Briefly: Scatchard analysis, IgG; form of TAT10772 not stated.
For experiment [5], the target named is T2, 5-domain TAT10772. Briefly: ELISA, IgG, 5′-domain TAT10772.
Experiment [6] addresses T3, CA125, human TAT10772 shed antigen (human, UniProt Q8WXI7 1-14451, limits assumed).
T3 construct: domain: entire shed antigen; Bought reagent; also called CA125 polypeptide
Kind of experiment: ELISA, IgG, CA125.

In experiment [7] the target is T1, TAT10772 polypeptide. Kind of experiment: Scatchard analysis, IgG.

B1: murine 3A5 anti-TAT10772 antibody (antibody, V domains shown)
VH: DVQLQESGPGLVNPSQSLSLTCTVTGYSITNDYAWNWIRQFPGNKLEWMGYINYSGYTTYNPSLKSRISITRDTSKNQFFLHLNSVTTEDTATYYCARWDGGLTYWGQGTLVTVSA
VL: DIQMTQSSSFLSVSLGGRVTITCKASDLIHNWLAWYQQKPGNAPRLLISGATSLETGVPSRFSGSGSGNDYTLSIASLQTEDAATYYCQQYWTTPFTFGSGTKLEIK
notes: Murine monoclonal antibody from hybridoma; also called monoclonal antibody 3A5; monoclonal antibody 3A5.3
In the case of B1, in the experiment with TAT10772 polypeptide [1], the binding result is “binds”.

B2: 3A5 chimera (mu3A5-H; SEQ ID NO: 11) (antibody, V domains shown)
VH: B1 VH
VL: DIQMTQSPSSLSASVGDRVTITCKASDLIHNWLAWYQQKPGKAPKLLIYGATSLETGVPSRFSGSGSGTDFTLTISSLQPEDFATYYCQQYWTTPFTFGQGTKVEIKR
notes: IgG; also called chimeric 3A5; chimeric antibody
On to B2, for which the equilibrium dissociation constant (Kd) with 5-domain TAT10772 [2] stood at 2.7 nM; with TAT10772 polypeptide [3], 0.3 nM; with TAT10772 polypeptide [4] it was 0.57 nM; with 5-domain TAT10772 [5], 2.3 nM; in experiment [6], 0.3 nM. The same molecule gave a koff with 5-domain TAT10772 [2] of 0.000121 s⁻¹. Also, in the experiment with 5-domain TAT10772 [2], the kon worked out at 44800 M⁻¹ s⁻¹.

B3: 3A5v1 (SEQ ID NO: 198) (antibody, V domains shown)
VH: EVQLVESGGGLVQPGGSLRLSCAASGYSITNDYAWNWVRQAPGKGLEWVGYINYSGYTTYNPSLKSRFTISRDTSKNTLYLQMNSLRAEDTAVYYCARWASGLDYWGQGTLVTVSS
VL: B2 VL
notes: Humanized IgG
B3: the equilibrium dissociation constant (Kd) with 5-domain TAT10772 [2] turned out to be 4.8 nM; with TAT10772 polypeptide [3], 0.5 nM; with 5-domain TAT10772 [5] it was 3 nM; in experiment [6], 0.6 nM. The same molecule returned a koff with 5-domain TAT10772 [2] of 0.000178 s⁻¹. The molecule also came in with a kon in the experiment with 5-domain TAT10772 [2] of 36900 M⁻¹ s⁻¹.

B4: 3A5v6 (SEQ ID NO: 203) (antibody, V domains shown)
VH: B3 VH with L79F, A100D, D104T
VL: B2 VL
notes: Humanized IgG
For B4, the Kd with TAT10772 polypeptide [3] was 0.6 nM; in the experiment with 5-domain TAT10772 [5], 5.7 nM; in experiment [6], 4.4 nM.

B5: 3A5v2 (SEQ ID NO: 199) (antibody, V domains shown)
VH: B3 VH with L79F, D104S, Y105H
VL: B2 VL
notes: Humanized IgG
In the case of B5, the Kd with 5-domain TAT10772 [2] was determined as 3.6 nM; with TAT10772 polypeptide [3], 0.7 nM; with 5-domain TAT10772 [5] it was 3.7 nM; in experiment [6], 0.8 nM. The off-rate constant (koff) in the experiment with 5-domain TAT10772 [2] came to 0.000121 s⁻¹. The kon in the experiment with 5-domain TAT10772 [2] came to 33400 M⁻¹ s⁻¹.

B6: 3A5v5 (SEQ ID NO: 202) (antibody, V domains shown)
VH: B3 VH with L79F, A100D, S101A, D104T
VL: B2 VL
notes: Humanized IgG
B6: the dissociation constant (Kd) in the experiment with TAT10772 polypeptide [3] was 0.6 nM; with 5-domain TAT10772 [5], 10.2 nM; in experiment [6], 8.2 nM.

B7: 3A5.F-graft (SEQ ID NO: 13), IgG (antibody, V domains shown)
VH: B3 VH with T74N, L79F, A100D, S101G, D104T
VL: B2 VL
notes: IgG
As for B7, the dissociation constant Kd stood at 10 nM in the experiment with 5-domain TAT10772 [2], 0.6 nM in the experiment with TAT10772 polypeptide [3], 90.3 nM in the experiment with 5-domain TAT10772 [5] and 51.4 nM in experiment [6]. Also, the koff with 5-domain TAT10772 [2] was 0.000292 s⁻¹. In addition, the on-rate constant (kon) with 5-domain TAT10772 [2] came out at 28500 M⁻¹ s⁻¹.

B8: 3A5v1b 54 (SEQ ID NO: 207) (antibody, V domains shown)
VH: B3 VH with S55A
VL: B2 VL
notes: Humanized IgG, 3A5.v1 with the CDR-H2 glycosylation site removed at position 54
The molecule B8 yielded a Kd with TAT10772 polypeptide [4] of 0.37 nM.

B9: 3A5v8 (SEQ ID NO: 205) (antibody, V domains shown)
VH: B3 VH with A100T, Y105S
VL: B2 VL
notes: Humanized IgG
For B9, the dissociation constant Kd was 2.3 nM in the experiment with 5-domain TAT10772 [2], 0.5 nM in the experiment with TAT10772 polypeptide [3], 2.6 nM with 5-domain TAT10772 [5] and 0.4 nM in experiment [6]. The molecule further displayed a koff in the experiment with 5-domain TAT10772 [2] of 0.000127 s⁻¹. Moreover, the kon with 5-domain TAT10772 [2] came out at 55100 M⁻¹ s⁻¹.

B10: 3A5.L-graft (SEQ ID NO: 12), IgG (antibody, V domains shown)
VH: B3 VH with T74N, A100D, S101G, D104T
VL: B2 VL
notes: IgG
On to B10, for which the Kd with TAT10772 polypeptide [3] worked out at 7.1 nM.

B11: 3A5v4 (SEQ ID NO: 201) (antibody, V domains shown)
VH: B3 VH with A100T
VL: B2 VL
notes: Humanized IgG
With B11, the dissociation constant (Kd) came to 0.8 nM with TAT10772 polypeptide [3], 2.4 nM in the experiment with 5-domain TAT10772 [5] and 0.3 nM in experiment [6].

B12: 3A5v4b.54 (SEQ ID NO:209) (antibody, V domains shown)
VH: B3 VH with S55A, A100T
VL: B2 VL
For B12, in the experiment with TAT10772 polypeptide [7], the binding result is “binds”.

B13: 3A5v3 (SEQ ID NO: 200) (antibody, V domains shown)
VH: B3 VH with L79F, D104S
VL: B2 VL
notes: Humanized IgG
B13: the dissociation constant Kd with 5-domain TAT10772 [2] stood at 3.6 nM; with TAT10772 polypeptide [3] it was 0.2 nM; with 5-domain TAT10772 [5], 1.6 nM; in experiment [6] it was 0.5 nM. Moreover, the off-rate constant (koff) in the experiment with 5-domain TAT10772 [2] came to 0.00013 s⁻¹. In the experiment with 5-domain TAT10772 [2], this molecule registered a kon of 36200 M⁻¹ s⁻¹.

B14: 3A5v7 (SEQ ID NO: 204) (antibody, V domains shown)
VH: B3 VH with A100K, Y105S
VL: B2 VL
notes: Humanized IgG
As for B14, the dissociation constant (Kd) was found to be 0.8 nM with TAT10772 polypeptide [3], 3.3 nM with 5-domain TAT10772 [5] and 1.2 nM in experiment [6].

B15: 3A5v1b 52 (SEQ ID NO: 206) (antibody, V domains shown)
VH: B3 VH with N53S
VL: B2 VL
notes: Humanized IgG, 3A5.v1 with the CDR-H2 glycosylation site removed at position 52
With B15, the Kd with TAT10772 polypeptide [4] was 0.47 nM.

B16: 3A5v4b 52 (SEQ ID NO: 208) (antibody, V domains shown)
VH: B3 VH with N53S, A100T
VL: B2 VL
notes: Humanized IgG, 3A5.v4 with the CDR-H2 glycosylation site removed at position 52
With B16, in the experiment with TAT10772 polypeptide [4], the equilibrium dissociation constant (Kd) was 0.46 nM.
